Reference: patent US20030203373A1 (priority 2002, published 2003)

Target: T1, angiotensin-converting-enzyme derived from pig kidney (pig) (UniProt F1RRW5)
T1 sequence (looked up): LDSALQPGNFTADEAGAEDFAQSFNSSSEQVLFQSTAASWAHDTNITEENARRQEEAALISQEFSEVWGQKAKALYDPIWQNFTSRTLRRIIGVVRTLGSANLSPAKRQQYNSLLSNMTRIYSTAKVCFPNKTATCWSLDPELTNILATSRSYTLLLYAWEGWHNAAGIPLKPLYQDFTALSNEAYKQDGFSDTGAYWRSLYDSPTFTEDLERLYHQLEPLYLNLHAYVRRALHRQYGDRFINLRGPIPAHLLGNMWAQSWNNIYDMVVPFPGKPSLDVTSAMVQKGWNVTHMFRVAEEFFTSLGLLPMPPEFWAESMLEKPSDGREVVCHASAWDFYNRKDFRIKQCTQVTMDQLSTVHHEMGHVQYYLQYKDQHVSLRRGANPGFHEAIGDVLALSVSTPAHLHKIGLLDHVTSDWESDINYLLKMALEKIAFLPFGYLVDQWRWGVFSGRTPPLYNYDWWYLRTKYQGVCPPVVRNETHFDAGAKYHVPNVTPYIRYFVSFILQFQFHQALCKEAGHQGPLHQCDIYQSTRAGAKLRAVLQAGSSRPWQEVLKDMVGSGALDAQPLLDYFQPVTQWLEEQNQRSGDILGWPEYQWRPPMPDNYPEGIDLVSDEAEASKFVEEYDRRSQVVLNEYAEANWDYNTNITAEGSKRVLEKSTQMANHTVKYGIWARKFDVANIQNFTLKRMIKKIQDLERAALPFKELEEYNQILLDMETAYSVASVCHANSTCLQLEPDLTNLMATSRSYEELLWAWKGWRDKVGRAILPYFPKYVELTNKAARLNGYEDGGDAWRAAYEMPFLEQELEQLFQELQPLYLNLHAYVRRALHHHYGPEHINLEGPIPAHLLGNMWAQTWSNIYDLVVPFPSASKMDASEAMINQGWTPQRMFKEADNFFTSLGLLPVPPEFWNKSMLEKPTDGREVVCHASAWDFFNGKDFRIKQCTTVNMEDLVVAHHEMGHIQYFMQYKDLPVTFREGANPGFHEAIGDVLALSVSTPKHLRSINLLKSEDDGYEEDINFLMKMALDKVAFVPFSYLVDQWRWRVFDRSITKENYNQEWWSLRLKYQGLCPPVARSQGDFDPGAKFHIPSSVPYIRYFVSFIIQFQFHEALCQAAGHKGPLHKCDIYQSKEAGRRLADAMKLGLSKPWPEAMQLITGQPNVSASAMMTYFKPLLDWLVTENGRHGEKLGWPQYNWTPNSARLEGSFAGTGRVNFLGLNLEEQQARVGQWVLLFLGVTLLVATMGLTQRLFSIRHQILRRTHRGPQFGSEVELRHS
Assay: cell-based or functional assay

BPP9a from Bothrops jararaca (peptide) gave a % inhibition, inhibitor 0.0097 µM, row A of 18%, a % inhibition, inhibitor 0.0097 µM, row B of 17.3% and a % inhibition, inhibitor 0.0097 µM, row C of 14.8%. It also gave a % inhibition, inhibitor 0.0097 µM, row D of 7.86%, a % inhibition, inhibitor 0.0195 µM, row C of 23% and a % inhibition, inhibitor 0.078 µM, row B of 43.5%. For the same substance, the % inhibition, inhibitor 0.15625 µM, row B was 63.3%, the % inhibition, inhibitor 0.3125 µM, row A was 84% and the % inhibition, inhibitor 0.3125 µM, row B was 83.8%. The % inhibition, inhibitor 0.625 µM, row A was 94%, the % inhibition, inhibitor 0.625 µM, row B was 93.5% and the % inhibition, inhibitor 1.25 µM, row B was 97.3%. It also gave an IC50, ACE inhibition of 97 nM, an IC50-value, ACE inhibition (hippuryl-histidyl-leucin substrate) of 97 nM and a fluorescence, inhibitor 0.0097 µM, row A of 704000. The fluorescence, inhibitor 0.0097 µM, row B was 710000, the fluorescence, inhibitor 0.0097 µM, row C was 732000 and the fluorescence, inhibitor 0.0097 µM, row D was 791000. For the same substance, the fluorescence, inhibitor 0.0195 µM, row A was 650000, the fluorescence, inhibitor 0.0195 µM, row B was 652000 and the fluorescence, inhibitor 0.0195 µM, row C was 662000. The fluorescence, inhibitor 0.0195 µM, row D was 697000, the fluorescence, inhibitor 0.039 µM, row A was 629000 and the fluorescence, inhibitor 0.039 µM, row B was 556000. The fluorescence, inhibitor 0.039 µM, row C was 592000, the fluorescence, inhibitor 0.039 µM, row D was 454000 and the fluorescence, inhibitor 0.078 µM, row A was 446000. It also gave a fluorescence, inhibitor 0.078 µM, row B of 487000, a fluorescence, inhibitor 0.078 µM, row C of 445000 and a fluorescence, inhibitor 0.078 µM, row D of 462000. For the same substance, the fluorescence, inhibitor 0.15625 µM, row A was 309000, the fluorescence, inhibitor 0.15625 µM, row B was 318000 and the fluorescence, inhibitor 0.15625 µM, row C was 311000. For the same substance, the fluorescence, inhibitor 0.15625 µM, row D was 262000, the fluorescence, inhibitor 0.3125 µM, row A was 142000 and the fluorescence, inhibitor 0.3125 µM, row B was 144000. The fluorescence, inhibitor 0.3125 µM, row C was 148000, the fluorescence, inhibitor 0.3125 µM, row D was 149000 and the fluorescence, inhibitor 0.625 µM, row A was 55600. For the same substance, the fluorescence, inhibitor 0.625 µM, row B was 60300, the fluorescence, inhibitor 0.625 µM, row C was 60900 and the fluorescence, inhibitor 0.625 µM, row D was 57500. It also gave a fluorescence, inhibitor 1.25 µM, row A of 25800, a fluorescence, inhibitor 1.25 µM, row B of 27500 and a fluorescence, inhibitor 1.25 µM, row C of 27000. It also gave a fluorescence, inhibitor 1.25 µM, row D of 27200, a fluorescence, inhibitor 2.5 µM, row A of 14000 and a fluorescence, inhibitor 2.5 µM, row B of 13900. It also gave a fluorescence, inhibitor 2.5 µM, row C of 14100, a fluorescence, inhibitor 2.5 µM, row D of 15100 and a fluorescence, inhibitor 5 µM, row A of 10600. For the same substance, the fluorescence, inhibitor 5 µM, row B was 9630, the fluorescence, inhibitor 5 µM, row C was 9630 and the fluorescence, inhibitor 5 µM, row D was 9660.
